According to PMC11212022:

Target: recombinant protein A/G (Pierce)
Assay: plasmonic metamaterial refractive-index sensing (resonance wavelength shift, reflection probe); protein A/G (500 ug/mL in PBS, 45 min) physisorbed on gold nanodiscs of the sensor, washed 30 min with PBS; IgG 50 ug/mL applied in a microfluidic cell, plateau after 45 min, washed 30 min with …; reflection read at 1 min intervals

Substance “antimouse IgG (labeled with FITC) produced in goat (F5262, Sigma-Aldrich) (antibody)” has a resonance wavelength shift of 2 nm.
